{"source": "patent US20150355179", "proteins": {"B1": {"name": "recombinant CDK4/Cyclin D (enzyme, part only; not given: Cyclin D partner)", "chain": "MATSRYEPVAEIGVGAYGTVYKARDPHSGHFVALKSVRVPNGGGGGGGLPISTVREVALLRRLEAFEHPNVVRLMDVCATSRTDREIKVTLVFEHVDQDLRTYLDKAPPPGLPAETIKDLMRQFLRGLDFLHANCIVHRDLKPENILVTSGGTVKLADFGLARIYSYQMALTPVVVTLWYRAPEVLLQSTYATPVDMWSVGCIFAEMFRRKPLFCGNSEADQLGKIFDLIGLPPEDDWPRDVSLPRGAFPPRGPRPVQSVVPEMEESGAQLLLEMLTFNPHKRISAFRALQHSYLHKDEGNPE"}, "B2": {"name": "Plk3 kinase (protein)", "chain": "MEPAAGFLSPRPFQRAAAAPAPPAGPGPPPSALRGPELEMLAGLPTSDPGRLITDPRSGRTYLKGRLLGKGGFARCYEATDTETGSAYAVKVIPQSRVAKPHQREKILNEIELHRDLQHRHIVRFSHHFEDADNIYIFLELCSRKSLAHIWKARHTLLEPEVRYYLRQILSGLKYLHQRGILHRDLKLGNFFITENMELKVGDFGLAARLEPPEQRKKTICGTPNYVAPEVLLRQGHGPEADVWSLGCVMYTLLCGSPPFETADLKETYRCIKQVHYTLPASLSLPARQLLAAILRASPRDRPSIDQILRHDFFTKGYTPDRLPISSCVTVPDLTPPNPARSLFAKVTKSLFGRKKKSKNHAQERDEVSGLVSGLMRTSVGHQDARPEAPAASGPAPVSLVETAPEDSSPRGTLASSGDGFEEGLTVATVVESALCALRNCIAFMPPAEQNPAPLAQPEPLVWVSKWVDYSNKFGFGYQLSSRRVAVLFNDGTHMALSANRKTVHYNPTSTKHFSFSVGAVPRALQPQLGILRYFASYMEQHLMKGGDLPSVEEVEVPAPPLLLQWVKTDQALLMLFSDGTVQVNFYGDHTKLILSGWEPLLVTFVARNRSACTYLASHLRQLGCSPDLRQRLRYALRLLRDRSPA"}}, "key": {"[1]": {"system": "GST-CDKACTH1 labelled with Cy3 (CDKACTH1-Cy3)"}, "[2]": {"biological_target": "T1, GST-CDKACTH1 labelled with Cy3 (CDKACTH1-Cy3)", "T1 chain": "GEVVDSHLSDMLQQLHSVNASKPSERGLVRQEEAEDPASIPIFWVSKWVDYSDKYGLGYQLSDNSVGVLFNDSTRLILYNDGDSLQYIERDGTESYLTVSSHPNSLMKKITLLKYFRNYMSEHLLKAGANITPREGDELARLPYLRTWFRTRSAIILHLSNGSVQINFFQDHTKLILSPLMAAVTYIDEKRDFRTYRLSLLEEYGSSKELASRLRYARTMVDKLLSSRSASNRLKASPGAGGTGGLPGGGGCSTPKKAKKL"}}, "note": "Like-named read-outs stand apart in the source and are kept apart here."}
{"protein": "B1", "values": [{"measurement": "real-time fluorescence kinase assay (Cy3 fluorescence)", "setting": "[1]", "result": "CDK4/Cyclin D kinase induced changes in CDKACTH1 fluorescence reminiscent of CDK2/Cyclin A"}]}
{"protein": "B2", "values": [{"measurement": "real-time fluorescence kinase assay (Cy3 fluorescence)", "setting": "[2]", "result": "Plk1 or Plk3 did not induce any significant changes in the fluorescence of CDKACTH1, in the same range of concentrations"}]}
